# Source: patent US20050070470A1 (ADMINISTRATORS OF THE TULANE EDUCATIONAL FUND, published 2005)
# *1 amine or outer side, *2 acyl side, *3 side chain or, on linkers, in order; H or OH if unused. Bridges are numbered along the chain shown (N, C = ends). Where no end group is shown, it is not given here. [ ]: non-standard residue; d: D form. MTXCOO‑CH2CO = methotrexate-acetyl; 4Pal = N[C@@H](Cc1ccncc1)C(=O)O; Suc = O=C(CCC(=O)[*:2])[*:1]; hSer = N[C@@H](CCO)C(=O)O; Nle = CCCC[C@H](N)C(=O)O; Nva = CCC[C@H](N)C(=O)O; Abu = CC[C@H](N)C(=O)O
# B1: D-Ser-D-Ser-D-Ser-D-Ser-D-Ser-L-hSer-D-Tyr-D-Ser-cyclo[L-Cys-L-Phe-D-Trp-L-Lys-L-Thr-L-Cys]-L-Thr-NH2 (peptide)
# peptide: [dS][dS][dS][dS][dS][hSer][dY][dS]CF[dW]KTCT-NH2
# modifications: disulfide 9-14; N-terminus assumed
# SMILES: C[C@@H](O)[C@H](NC(=O)[C@@H]1CSSC[C@H](NC(=O)[C@@H](CO)NC(=O)[C@@H](Cc2ccc(O)cc2)NC(=O)[C@H](CCO)NC(=O)[C@@H](CO)NC(=O)[C@@H](CO)NC(=O)[C@@H](CO)NC(=O)[C@@H](CO)NC(=O)[C@H](N)CO)C(=O)N[C@@H](Cc2ccccc2)C(=O)N[C@H](Cc2c[nH]c3ccccc23)C(=O)N[C@@H](CCCCN)C(=O)N[C@@H]([C@@H](C)O)C(=O)N1)C(N)=O
# B2: D-Ser-D-Ser-D-Ser-D-Ser-D-Ser-L-Lys-D-Tyr-D-Ser-cyclo[L-Cys-L-Phe-D-Trp-L-Lys-L-Thr-L-Cys]-L-Thr-NH2 (peptide)
# peptide: [dS][dS][dS][dS][dS]K[dY][dS]CF[dW]KTCT-NH2
# modifications: disulfide 9-14; not fully specified; printed as D-Ser-D-Ser-D-Ser-D-Ser-D-Ser-L-Lys-D-Tyr-D-Ser-cyclo[L-Cys-L-Phe-D-Trp-L-Lys-L-Thr-L-Cys]-L-Thr-NH2
# B3: D-Ser-D-Ser-D-Ser-D-Ser-D-Ser-L-Lys-D-Tyr-D-Tyr-cyclo[L-Cys-L-Phe-D-Trp-L-Lys-L-Thr-L-Cys]-L-Thr-NH2 (peptide)
# peptide: [dS][dS][dS][dS][dS]K[dY][dY]CF[dW]KTCT-NH2
# modifications: disulfide 9-14; N-terminus assumed
# SMILES: C[C@@H](O)[C@H](NC(=O)[C@@H]1CSSC[C@H](NC(=O)[C@@H](Cc2ccc(O)cc2)NC(=O)[C@@H](Cc2ccc(O)cc2)NC(=O)[C@H](CCCCN)NC(=O)[C@@H](CO)NC(=O)[C@@H](CO)NC(=O)[C@@H](CO)NC(=O)[C@@H](CO)NC(=O)[C@H](N)CO)C(=O)N[C@@H](Cc2ccccc2)C(=O)N[C@H](Cc2c[nH]c3ccccc23)C(=O)N[C@@H](CCCCN)C(=O)N[C@@H]([C@@H](C)O)C(=O)N1)C(N)=O
# B4: Succinate-D-Asp-D-Ser-D-Ser-D-Ser-D-Ser-D-Ser-L-Thr-D-Tyr-D-Ser-cyclo[L-Cys-L-Phe-D-Trp-L-Lys-L-Thr-L-Cys]-L-Thr-NH2 (peptide)
# peptide: Suc-[dD][dS][dS][dS][dS][dS]T[dY][dS]CF[dW]KTCT-NH2
# modifications: disulfide 10-15
# SMILES: C[C@@H](O)[C@H](NC(=O)[C@@H]1CSSC[C@H](NC(=O)[C@@H](CO)NC(=O)[C@@H](Cc2ccc(O)cc2)NC(=O)[C@@H](NC(=O)[C@@H](CO)NC(=O)[C@@H](CO)NC(=O)[C@@H](CO)NC(=O)[C@@H](CO)NC(=O)[C@@H](CO)NC(=O)[C@@H](CC(=O)O)NC(=O)CCC(=O)O)[C@@H](C)O)C(=O)N[C@@H](Cc2ccccc2)C(=O)N[C@H](Cc2c[nH]c3ccccc23)C(=O)N[C@@H](CCCCN)C(=O)N[C@@H]([C@@H](C)O)C(=O)N1)C(N)=O
# B5: D-Gln-D-Gln-D-Gln-D-Gln-D-Gln-D-Gln-D-Gln-D-Gln-D-Gln-D-Gln-L-Lys-D-Tyr-D-Tyr-cyclo[L-Cys-L-Phe-D-Trp-L-Lys-L-Thr-L-Cys]-L-Thr-NH2 (peptide)
# peptide: [dQ][dQ][dQ][dQ][dQ][dQ][dQ][dQ][dQ][dQ]K[dY][dY]CF[dW]KTCT-NH2
# modifications: disulfide 14-19; N-terminus assumed
# SMILES: C[C@@H](O)[C@H](NC(=O)[C@@H]1CSSC[C@H](NC(=O)[C@@H](Cc2ccc(O)cc2)NC(=O)[C@@H](Cc2ccc(O)cc2)NC(=O)[C@H](CCCCN)NC(=O)[C@@H](CCC(N)=O)NC(=O)[C@@H](CCC(N)=O)NC(=O)[C@@H](CCC(N)=O)NC(=O)[C@@H](CCC(N)=O)NC(=O)[C@@H](CCC(N)=O)NC(=O)[C@@H](CCC(N)=O)NC(=O)[C@@H](CCC(N)=O)NC(=O)[C@@H](CCC(N)=O)NC(=O)[C@@H](CCC(N)=O)NC(=O)[C@H](N)CCC(N)=O)C(=O)N[C@@H](Cc2ccccc2)C(=O)N[C@H](Cc2c[nH]c3ccccc23)C(=O)N[C@@H](CCCCN)C(=O)N[C@@H]([C@@H](C)O)C(=O)N1)C(N)=O
# B6: MTXCOO-CH2CO-(D-Ser)5-Lys-D-Tyr-D-Tyr-Cys-Phe-D-Trp-Lys-Thr-Cys-Thr-NH2 (peptide)
# peptide: {MTXCOO‑CH2CO}-[dS][dS][dS][dS][dS]K[dY][dY]CF[dW]KTCT-NH2
# modifications: cysteine pairing not given here
# B7: 3-N,N-Dimethylaminobenzoic-D-Ser-D-Ser-D-Ser-D-Ser-D-Ser-D-Ser-D-Ser-D-Ser-D-Ser-D-Ser-D-Ser-D-Ser-D-Ser-D-Ser-D-Ser-L-Lys-D-Tyr-D-Tyr-cyclo[L-Cys-L-Phe-D-Trp-L … (peptide)
# peptide: {3‑N,N‑dimethylaminobenzoyl}-[dS][dS][dS][dS][dS][dS][dS][dS][dS][dS][dS][dS][dS][dS][dS]K[dY][dY]CF[dW]KTCT-NH2
# modifications: disulfide 19-24
# B8: D-Ser-D-Ser-D-Ser-D-Ser-D-Ser-L-Asp-D-Tyr-D-Ser-cyclo[L-Cys-L-Phe-D-Trp-L-Lys-L-Thr-L-Cys]-L-Thr-NH2 (peptide)
# peptide: [dS][dS][dS][dS][dS]D[dY][dS]CF[dW]KTCT-NH2
# modifications: disulfide 9-14; N-terminus assumed
# SMILES: C[C@@H](O)[C@H](NC(=O)[C@@H]1CSSC[C@H](NC(=O)[C@@H](CO)NC(=O)[C@@H](Cc2ccc(O)cc2)NC(=O)[C@H](CC(=O)O)NC(=O)[C@@H](CO)NC(=O)[C@@H](CO)NC(=O)[C@@H](CO)NC(=O)[C@@H](CO)NC(=O)[C@H](N)CO)C(=O)N[C@@H](Cc2ccccc2)C(=O)N[C@H](Cc2c[nH]c3ccccc23)C(=O)N[C@@H](CCCCN)C(=O)N[C@@H]([C@@H](C)O)C(=O)N1)C(N)=O
# B9: D-Ser-D-Ser-D-Ser-D-Gln-D-Ser-D-Ser-D-Ser-D-Gln-D-Ser-D-Ser-D-Ser-D-Gln-L-Norvaline-D-Tyr-D-Ser-cyclo[L-Cys-L-Phe-D-Trp-L-Lys-L-Thr-L-Cys]-L-Thr-NH2 (peptide)
# peptide: [dS][dS][dS][dQ][dS][dS][dS][dQ][dS][dS][dS][dQ][Nva][dY][dS]CF[dW]KTCT-NH2
# modifications: disulfide 16-21; N-terminus assumed
# SMILES: CCC[C@H](NC(=O)[C@@H](CCC(N)=O)NC(=O)[C@@H](CO)NC(=O)[C@@H](CO)NC(=O)[C@@H](CO)NC(=O)[C@@H](CCC(N)=O)NC(=O)[C@@H](CO)NC(=O)[C@@H](CO)NC(=O)[C@@H](CO)NC(=O)[C@@H](CCC(N)=O)NC(=O)[C@@H](CO)NC(=O)[C@@H](CO)NC(=O)[C@H](N)CO)C(=O)N[C@H](Cc1ccc(O)cc1)C(=O)N[C@H](CO)C(=O)N[C@H]1CSSC[C@@H](C(=O)N[C@H](C(N)=O)[C@@H](C)O)NC(=O)[C@H]([C@@H](C)O)NC(=O)[C@H](CCCCN)NC(=O)[C@@H](Cc2c[nH]c3ccccc23)NC(=O)[C@H](Cc2ccccc2)NC1=O
# B10: D-Ser-D-Ser-D-Ser-D-Ser-D-Ser-L-4Pal-D-Tyr-D-Ser-cyclo[L-Cys-L-Phe-D-Trp-L-Lys-L-Thr-L-Cys]-L-Thr-NH2 (peptide)
# peptide: [dS][dS][dS][dS][dS][4Pal][dY][dS]CF[dW]KTCT-NH2
# modifications: disulfide 9-14; N-terminus assumed
# SMILES: C[C@@H](O)[C@H](NC(=O)[C@@H]1CSSC[C@H](NC(=O)[C@@H](CO)NC(=O)[C@@H](Cc2ccc(O)cc2)NC(=O)[C@H](Cc2ccncc2)NC(=O)[C@@H](CO)NC(=O)[C@@H](CO)NC(=O)[C@@H](CO)NC(=O)[C@@H](CO)NC(=O)[C@H](N)CO)C(=O)N[C@@H](Cc2ccccc2)C(=O)N[C@H](Cc2c[nH]c3ccccc23)C(=O)N[C@@H](CCCCN)C(=O)N[C@@H]([C@@H](C)O)C(=O)N1)C(N)=O
# B11: Succinate-D-Asp-D-Ser-D-Ser-D-Ser-D-Ser-D-Ser-L-Norleucine-D-Tyr-D-Ser-cyclo[L-Cys-L-Phe-D-Trp-L-Lys-L-Thr-L-Cys]-L-Thr-NH2 (peptide)
# peptide: succinate-[dD][dS][dS][dS][dS][dS][Nle][dY][dS]CF[dW]KTCT-NH2
# modifications: disulfide 10-15
# B12: D-Ser-D-Ser-D-Ser-D-Ser-D-Ser-L-Gln-D-Tyr-D-Ser-cyclo[L-Cys-L-Phe-D-Trp-L-Lys-L-Thr-L-Cys]-L-Thr-NH2 (peptide)
# peptide: [dS][dS][dS][dS][dS]Q[dY][dS]CF[dW]KTCT-NH2
# modifications: disulfide 9-14; N-terminus assumed
# SMILES: C[C@@H](O)[C@H](NC(=O)[C@@H]1CSSC[C@H](NC(=O)[C@@H](CO)NC(=O)[C@@H](Cc2ccc(O)cc2)NC(=O)[C@H](CCC(N)=O)NC(=O)[C@@H](CO)NC(=O)[C@@H](CO)NC(=O)[C@@H](CO)NC(=O)[C@@H](CO)NC(=O)[C@H](N)CO)C(=O)N[C@@H](Cc2ccccc2)C(=O)N[C@H](Cc2c[nH]c3ccccc23)C(=O)N[C@@H](CCCCN)C(=O)N[C@@H]([C@@H](C)O)C(=O)N1)C(N)=O
# B13: D-Ser-D-Ser-D-Ser-D-Ser-D-Ser-L-Thr-D-Tyr-D-Ser-cyclo[L-Cys-L-Phe-D-Trp-L-Lys-L-Thr-L-Cys]-L-Thr-NH2 (peptide)
# peptide: [dS][dS][dS][dS][dS]T[dY][dS]CF[dW]KTCT-NH2
# modifications: disulfide 9-14; N-terminus assumed
# SMILES: C[C@@H](O)[C@H](NC(=O)[C@@H]1CSSC[C@H](NC(=O)[C@@H](CO)NC(=O)[C@@H](Cc2ccc(O)cc2)NC(=O)[C@@H](NC(=O)[C@@H](CO)NC(=O)[C@@H](CO)NC(=O)[C@@H](CO)NC(=O)[C@@H](CO)NC(=O)[C@H](N)CO)[C@@H](C)O)C(=O)N[C@@H](Cc2ccccc2)C(=O)N[C@H](Cc2c[nH]c3ccccc23)C(=O)N[C@@H](CCCCN)C(=O)N[C@@H]([C@@H](C)O)C(=O)N1)C(N)=O
# B14: Succinate-D-Ser-D-Ser-D-Ser-D-Ser-D-Ser-L-Ser-D-Tyr-D-Ser-cyclo[L-Cys-L-Phe-D-Trp-L-Lys-L-Thr-L-Cys]-L-Thr-NH2 (peptide)
# peptide: Succinate-[dS][dS][dS][dS][dS]S[dY][dS]CF[dW]KTCT-NH2
# modifications: disulfide 9-14
# B15: Mercaptoacetate-Gly-Gly-D-Asp-D-Ser-D-Ser-D-Ser-D-Ser-D-Ser-L-4Pal-D-Tyr-D-Ser-cyclo[L-Cys-L-Phe-D-Trp-L-Lys-L-Thr-L-Cys]-L-Thr-NH2 (peptide)
# peptide: mercaptoacetate-GG[dD][dS][dS][dS][dS][dS][4Pal][dY][dS]CF[dW]KTCT-NH2
# modifications: disulfide 12-17
# B16: Succinate-D-Ser-D-Ser-D-Ser-D-Ser-D-Ser-L-2-Aminobutyric acid-D-Tyr-D-Ser-cyclo[L-Cys-L-Phe-D-Trp-L-Lys-L-Thr-L-Cys]-L-Thr-NH2 (peptide)
# peptide: succinate-[dS][dS][dS][dS][dS][Abu][dY][dS]CF[dW]KTCT-NH2
# modifications: disulfide 9-14
# B17: D-Ser-D-Ser-D-Ser-D-Ser-D-Ser-L-Norleucine-D-Tyr-D-Ser-cyclo[L-Cys-L-Phe-D-Trp-L-Lys-L-Thr-L-Cys]-L-Thr-NH2 (peptide)
# peptide: [dS][dS][dS][dS][dS][Nle][dY][dS]CF[dW]KTCT-NH2
# modifications: disulfide 9-14; N-terminus assumed
# SMILES: CCCC[C@H](NC(=O)[C@@H](CO)NC(=O)[C@@H](CO)NC(=O)[C@@H](CO)NC(=O)[C@@H](CO)NC(=O)[C@H](N)CO)C(=O)N[C@H](Cc1ccc(O)cc1)C(=O)N[C@H](CO)C(=O)N[C@H]1CSSC[C@@H](C(=O)N[C@H](C(N)=O)[C@@H](C)O)NC(=O)[C@H]([C@@H](C)O)NC(=O)[C@H](CCCCN)NC(=O)[C@@H](Cc2c[nH]c3ccccc23)NC(=O)[C@H](Cc2ccccc2)NC1=O
# B18: MTXCOO-CH2CO-D-Lys-D-Tyr-Lys-D-Tyr-D-Lys-Cys-Phe-D-Trp-Lys-Thr-Cys-Thr-NH2 (peptide)
# peptide: {MTXCOO‑CH2CO}-[dK][dY]K[dY][dK]CF[dW]KTCT-NH2
# modifications: cysteine pairing not given here
# Target: somatostatin subtype 2 rat receptor (rat, UniProt P30680 1-369)
# Test: cell-based or functional assay
# Sequence of somatostatin subtype 2 rat receptor (P30680 whole entry): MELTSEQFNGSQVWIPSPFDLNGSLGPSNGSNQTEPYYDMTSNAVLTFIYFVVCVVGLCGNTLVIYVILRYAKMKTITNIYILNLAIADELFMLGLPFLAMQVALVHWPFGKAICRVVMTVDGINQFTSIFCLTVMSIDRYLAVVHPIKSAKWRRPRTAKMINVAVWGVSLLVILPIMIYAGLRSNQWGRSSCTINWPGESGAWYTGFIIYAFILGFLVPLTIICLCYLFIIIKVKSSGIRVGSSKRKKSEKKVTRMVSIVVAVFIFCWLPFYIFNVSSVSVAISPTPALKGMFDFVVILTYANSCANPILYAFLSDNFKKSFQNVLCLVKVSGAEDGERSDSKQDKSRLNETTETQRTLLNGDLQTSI
row,Binder,"IC50 (nM), inhibition of GH release from primary cultures of rat pituitary cells"
1,B1,0.55 nM
2,B2,0.086 nM
3,B3,0.14 nM
4,B4,5.17 nM
5,B5,0.24 nM
6,B6,0.16 nM
7,B7,0.27 nM
8,B8,7.55 nM
9,B9,0.93 nM
10,B10,0.18 nM
11,B11,0.52 nM
12,B12,0.45 nM
13,B13,0.72 nM
14,B14,5.6 nM
15,B15,0.97 nM
16,B16,0.61 nM
17,B17,0.094 nM
18,B18,0.62 nM
